Data published in patent US20100285131A1.

Biological target: β-Klotho overexpressed in recombinant human 293T kidney cells
Assay: cell-based or functional assay

Substance	EC50 (nM), ELK-luciferase [nM]	Efficacy, ELK-luciferase [%]
hFc-(L15)-hFGF21(L98R, P171G, 1-179) (Fc fusion)	7.8	77.4
hFc-(L15)-hFGF21(L98R, P171G, S181T) (Fc fusion)	3.07	77.6
hFc-(L15)-hFGF21(L98R, P171G, S181L) (Fc fusion)	3.46	72.6
hFc-(L15)-hFGF21(L98R, P171G, S181P) (Fc fusion)	33.8	79.5
MKEDD-hFGF21-(L15)-hFc (Fc fusion)	834	83.1
hFc-(L15)-hFGF21(L98R, P171G, S181K) (Fc fusion)	130	87.9
hFc-(L15)-hFGF21(1-178, L98R, P171G) (Fc fusion)	167	63.9
hFc-(L15)-hFGF21(L98R, P171G, S181A) (Fc fusion)	2.66	73.5

Now from value to substance:

EC50 (nM), ELK-luciferase [nM]	Efficacy, ELK-luciferase [%]	Substance
428	44.4	hFc-(L15)-hFGF21(L98R, P171G, Y179P) (Fc fusion)
61	82.6	hFc-(L15)-hFGF21(L98R, P171G, Y179G) (Fc fusion)
272	69.9	hFc-(L15)-hFGF21(L98R, P171G, S181P, P182) (Fc fusion)
617	77.1	hFc-(L15)-hFGF21(L98R, P171G, A180P) (Fc fusion)
3.43	77.3	hFc-(L15)-hFGF21(L98R, P171G, S181G) (Fc fusion)
4310	99.7	hFc-(L15)-hFGF21(L98R, P171G, GGGGG182-6) (Fc fusion)
